Laboratory results reported in patent CN116472284A.

What was measured:
[1] = biological target: SARS-CoV-2 spike ectodomain, prefusion-stabilised trimer (刺突 S2P) (SARS-CoV-2)
[2] = biological target: SARS-CoV-2 spike ectodomain, prefusion-stabilised trimer (刺突 S2P) (SARS-CoV-2); remark: listed apart in the source
[3] = biological target: SARS-CoV-2 spike ectodomain, prefusion-stabilised trimer (刺突 S2P) (SARS-CoV-2); test: SPR, captured spike S2P
[4] = biological target: SARS-CoV-2 spike ectodomain, prefusion-stabilised trimer (刺突 S2P) (SARS-CoV-2); test: binding kinetics (SPR), Fig. 6A
[5] = biological target: SARS-CoV-2 spike ectodomain, prefusion-stabilised trimer (刺突 S2P) (SARS-CoV-2); test: SPR, captured spike S2P, biphasic dissociation, fast phase kd1
[6] = biological target: SARS-CoV-2 spike ectodomain, prefusion-stabilised trimer (刺突 S2P) (SARS-CoV-2); test: SPR, captured spike S2P, biphasic dissociation, slow phase kd2

B1: Nb6 (VHH)
VHH: QVQLVESGGGLVQAGGSLRLSCAASGIIFGRNAMGWYRQAPGKERELVAGITRRGSITYYADSVKGRFTISRDNAKNTVYLQMNSLKPEDTAVYYCAADPASPAPGDYWGQGTQVTVSS
EC50 [1]: 359 nM
IC50 [2]: 370 nM
Kd [3]: 210 nM
koff [3]: 0.056 s⁻¹
Kd [4]: 210 nM

B2: Nb6-bi (bivalent Nb6 with a 15 amino acid linker) (VHH)
chain: QVQLVESGGGLVQAGGSLRLSCAASGIIFGRNAMGWYRQAPGKERELVAGITRRGSITYYADSVKGRFTISRDNAKNTVYLQMNSLKPEDTAVYYCAADPASPAPGDYWGQGTQVTVSSGGGGSGGGGSGGGGSQVQLVESGGGLVQAGGSLRLSCAASGIIFGRNAMGWYRQAPGKERELVAGITRRGSITYYADSVKGRFTISRDNAKNTVYLQMNSLKPEDTAVYYCAADPASPAPGDYWGQGTQVTVSS
fold gain in KD against monovalent Nb6 [3]: 750 fold
koff [5]: 0.027 s⁻¹
koff [6]: 0.00031 s⁻¹
